Measured values: patent US8124835B2, “Acyl-coa-dependent diacylglycerol acyltransferas 1 (DGAT1) gene from Tropaeolum majus, protein encoded thereby and uses thereof” (National Research Council of Canada, priority 2006, dated 2012)

What was measured:
[1] = test system: wild type (WT) Arabidopsis; test: Over-expression of TmDGAT1 in wild-type Arabidopsis; format: in vivo, Arabidopsis thaliana
Text: FIG. 10. Over expression of the TmDGAT1 in Arabidopsis. Effect of transformation of Arabidopsis with the TmDGAT1 cDNA under the control of a napin promoter on (A) oil content and (B) average 1000-seed weight. Total oil content (as percentage of mature seed dry weight) and seed weight are shown for pSE (empty plasmid) in WT Arabidopsis (white bars), non-transformed WT Arabidopsis (black bars) and napin:TmDGAT1 transgenic homozygous T3 Arabidopsis lines (gray bars represent transgenic lines with a single insert and hatched bars represents transgenic lines with multiple inserts). (C) Fatty acid composition is shown for pSE (empty plasmid) in WT Arabidopsis and napin:TmDGAT1 transgenic homozygous T3 Arabidopsis lines. Homozygous T3 napin:TmDGAT1 lines were analyzed in triplicate, about 200 seeds per sample, accurately counted and weighed. For the plasmid only pSE in WT transgenic and non-transformed WT controls, ≧8 individual seed lots were similarly analyzed; the averaged values are presented.
FIG. 11. […]
Transgenic plants were selected and analyzed essentially as described previously (Jako et al., 2001; Mietkiewska et al., 2004). […]
Segregation analyses were performed to further confirm and select those transformants containing a single copy of the inserted fragment. […] Plants that contained the insertion (as shown by the presence of a PCR product from a napin/NOS junction using NN3 primer (5′-[…]-3′; SEQ ID NO: 22) and NN4 primer (5′-[…]-3′; SEQ ID NO: 23) and that carry a single locus insertion (as determined by a 3:1 segregation ratio of T2 seeds on kanamycin) were identified. Southern analyses were performed to further confirm and select those transformants containing single vs. multiple copies of the inserted fragment. DNA samples were digested with restriction enzymes KpnI (or BglII), resolved by electrophoresis on a 1% (w/v) agarose gel, and Southern blotting performed using a nylon filter (Hybond N+, Amersham) according to Sambrook et al. (1989). […]

[2] = test system: DGAT activity; test: TmDGAT1 expressed in Sf9 insect cells, DGAT assay of membrane fractions; format: biochemical, Tropaeolum majus; details: Sf9 total membrane fraction (100,000×g pellet), 48 hours; sn-1,2-diolein + [1-14C]oleoyl-CoA
Method: FIG. 7. Expression of T. majus DGAT1 in baculovirus insect cells. TmDGAT1 activity was determined using membranes isolated from insect cells infected with wild type baculovirus (Control) and TmDGAT1 recombinant baculovirus in the presence of sn-1,2-diolein and [1-^14C]oleoyl-CoA.
The coding region of TmDGAT1 (SEQ. ID. NO: 2) was sub-cloned into pFastBAC for expression of the protein in an insect cell expression system (Bac-to-Bac baculovirus expression system, Invitrogen). Escherichia coli DH10Bac cells were transformed with the construct to generate recombinant bacmid DNA, and then the bacmid DNA was isolated and used to transfect Sf9 insect cells. The virus stock harvested from the transfected cells was used to re-infect fresh Sf9 insect cells. Insect cells (2.5×10^6 per 25 cm^2 dish) were infected with virus and were collected at 48 h by centrifugation and washed twice with PBS (Hobbs et al., 1999). […]
DGAT assays were conducted at pH 7.4, with shaking at 100 rev/min in a water bath at 30° C. for 60 min. […] The ^14C-labelled TAGs were isolated by TLC on silica gel G plates developed in hexane:diethyl ether:acetic acid (70:30:1 v/v/v/), the radiolabelled TAG bands visualized on a Bioscan AR-2000 radio-TLC scanner using Win-Scan 2D© software (Bioscan Inc., Washington D.C., USA) and the bands scraped and quantified as described by Taylor et al. (1991). […]

B1: TmDGAT1: Tropaeolum majus acyl-CoA-dependent diacylglycerol acyltransferase 1, 518 amino acids (SEQ ID NO: 3), encoded by ORF SEQ ID NO: 2 (protein, listed as Tropaeolum majus)
chain: MAVAESSQNTTTMSGHGDSDLNNFRRRKPSSSVIEPSSSGFTSTNGVPATGHVAENRDQDRVGAMENATGSVNLIGNGGGVVIGNEEKQVGETDIRFTYRPSFPAHRRVRESPLSSDAIFKQSHAGLFNLCIVVLIAVNSRLIIENLMKYGWLIDTGFWFSSRSLGDWSIFMCCLTLPIFPLAAFIVEKLVQRNHISELVAVLLHVIVSTAAVLYPVIVILTCDSVYMSGVVLMLFGCIMWLKLVSYAHTSSDIRTLAKSGYKGDAHPNSTIVSCSYDVSLKSLAYFMVAPTLCYQPSYPRSSCIRKGWVVRQFVKLIVFIGLMGFIIEQYINPIVRNSKHPLKGDFLYAIERVLKLSVPNLYVWLCMFYSFFHLWLNILAELLRFGDREFYKDWWNAKTVAEYWKMWNMPVHRWMVRHLYFPCLRNGIPKEGAIIIAFLVSGAFHELCIAVPCHVFKLWAFIGIMFQVPLVLITNYLQEKFSNSMVGNMIFWFIFCILGQPMCVLLYYHDLINLKEK
net increase in oil content ([1]; best line (TD/WT 13-6)): 44%
increase in DGAT activity ([1]; best line (TD/WT 13-6), mid-developing seed): two-fold
increase in total proportion of mono-unsaturated fatty acids (18:1+20:1) in seed TAGs ([1]; data not shown): 2-3%
DGAT activity relative to membrane fraction from control cells infected with vector only [2]: about 10 fold
